This test concerns the target IgE-Fc(E289C)_BirA, terbium chelate labelled, biotinylated, mixed with Alexa488 labelled streptavidin (human), P01854. The test is described as follows: cell-based or functional assay.

The text below walks through data of US20150219635A1.

Sequence of IgE-Fc(E289C)_BirA, terbium chelate labelled, biotinylated, mixed with Alexa488 labelled streptavidin (human), P01854 (P01854 other isoform, or with tags, fused parts or gaps, stated change not applied): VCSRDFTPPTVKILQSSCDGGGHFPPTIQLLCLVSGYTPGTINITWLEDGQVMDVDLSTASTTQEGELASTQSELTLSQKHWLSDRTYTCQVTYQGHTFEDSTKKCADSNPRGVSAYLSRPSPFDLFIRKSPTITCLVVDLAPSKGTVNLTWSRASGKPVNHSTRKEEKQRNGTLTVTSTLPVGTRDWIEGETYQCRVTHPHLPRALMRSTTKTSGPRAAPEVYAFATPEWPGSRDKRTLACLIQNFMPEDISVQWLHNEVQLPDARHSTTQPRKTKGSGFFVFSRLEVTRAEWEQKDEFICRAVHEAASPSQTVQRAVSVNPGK

B1: Fab7 (anti-human IgE Fab, human IgG1 Fab format) (Fab)
heavy: QVQLQQSGPGLVKPSQTLSLTCGISGDSVSSNSAAWNWLRQSPSRGLEWLGRTYYRSKWYNDYAVSMKSRITINPDTSRNQFSLQLNSVTPEDTAVYYCARDGEISYDYYYYGMDVWGRGTLVTVSSASTKGPSVFPLAPSSKSTSGGTAALGCLVKDYFPEPVTVSWNSGALTSGVHTFPAVLQSSGLYSLSSVVTVPSSSLGTQTYICNVNHKPSNTKVDKKVEPKSC
light: not shown
modifications: here or on the partner: thiol reactive terbium chelate on the Cys of E289C; biotin on the C-terminal BirA recognition motif (carrying Alexa488 labelled streptavidin)
In turn, B1 came in with a normalised FRET, mean, at [Fab] 0.152 nM of 1; a normalised FRET, mean, at [Fab] 0.45 nM of 0.2; a normalised FRET, mean, at [Fab] 1.37 nM of 1.55; a normalised FRET, mean, at [Fab] 4.4 nM of 0.1. Besides, the normalised FRET, mean, at [Fab] 12.3 nM was found to be 2; the normalised FRET, mean, at [Fab] 37.03 nM was 9.68; the normalised FRET, mean, at [Fab] 111 nM is 28.8; the normalised FRET, mean, at [Fab] 333 nM is 39.3. The same molecule displayed a normalised FRET, mean, at [Fab] 1000 nM of 43.4 and a normalised FRET, mean, at [Fab] 3000 nM of 41.
